B1: LEFTY1: left-right determination factor 1, secreted TGF-β superfamily protein; generic LEFTY may mean LEFTY1 or LEFTY2 (protein, UniProt O75610 77-366, looked up)
Left-right determination …: RFSQSFREVAGRFLALEASTHLLVFGMEQRLPPNSELVQAVLRLFQEPVPKAALHRHGRLSPRSARARVTVEWLRVRDDGSNRTSLIDSRLVSVHESGWKAFDVTEAVNFWQQLSRPRQPLLLQVSVQREHLGPLASGAHKLVRFASQGAPAGLGEPQLELHTLDLGDYGAQGDCDPEAPMTEGTRCCRQEMYIDLQGMKWAENWVLEPPGFLAYECVGTCRQPPEALAFKWPFLGPRQCIASETDSLPMIVSIKEGGRTRPQVVSLPNMRVQKCSCASDGALVPRRLQP
B2: BMP7: bone morphogenetic protein 7, BMPR2 ligand (protein)
chain: STGSKQRSQNRSKTPKNQEALRMANVAENSSSDQRQACKKHELYVSFRDLGWQDWIIAPEGYAAYYCEGECAFPLNSYMNATNHAIVQTLVHFINPETVPKPCCAPTQLNAISVLYFDDSSNVILKKYRNMVVRACGCH

Legend:
BMPR2 = assay: LEFTY1 and BMPR2 immunoprecipitation assays; type: binding; conditions: both directions
Source text: (§1) FIGS. 5A-5H. LEFTY1 inhibits pSMAD2 and pSMAD5 in the basal mammary epithelial cells. […] KRT8 was used to stain the luminal cells and SMA for basal cells (Magnification 400×). […] Gapdh was used as a housekeeping gene. […] Ten different fields were counted per condition (n=3). Data are represented as median±S.D. Statistical analysis, (a and b) Student's T-test, * p<0.05; (h) One-way ANOVA with Dunnet's adjustment, ****p<0.0001.
FIGS. 7A-7E. LEFTY1 interaction with BMPR2 inhibits the phosphorylation of SMAD5. […] Ten different fields were counted per condition (n=3). […] 48 hours after transfection, cells were washed and incubated with different concentrations of BMP7 (from 0-800 ng/ml) for 16 hours prior to collection of the cells. […] 48 hours after transfection, cells were washed and incubated with different concentrations of LEFTY1 (from 0-200 ng/ml) for 16 hours prior to collection of the cells. […] 48 hours after transfection, cells were washed and incubated with different concentrations of BMP7 and LEFTY1 at the indicated concentrations for 16 hours prior to collection of the cells. Data are represented as median±S.D. Statistical analysis, one-way ANOVA with Dunnet's adjustment, *p<0.05; **p<0.01; ****p<0.0001.
Since BMPR2 is upstream of pSMAD1/5/8, we reasoned that BMPR2 could serve as a common BMP Type II receptor that mediates the BMP7/LEFTY1 axis. […]

pSMAD5 [1] = assay: Western-blot of pSMAD5 in Comma-D mammary epithelial cells; type: cell-based, mouse; conditions: Comma-D cells blocked with LEFTY1 200 ng/ml 1 hour, stimulated with BMP7 and Nodal 50 ng/ml 30 minutes
Method: FIGS. 4J-4L. LEFTY1 inhibits pSMAD2 and pSMAD5 in Comma-D mouse mammary epithelial cells. […] Comma-D cells were serum starved 16 hours and blocked with LEFTY1 (200 ng/ml) for 1 hour and stimulated with BMP7 (50 ng/ml) and Nodal (50 ng/ml) for 30 minutes in serum free media. Cells were harvested in 1×RIPA Buffer with 1× protease and phosphatase inhibitors on ice. Lysates were diluted in 4× sample buffer and boiled at 95° C. for 5 minutes and then run on a 10% SDS-page gradient gels at 100V for 1 hour. […] The membranes were incubated with either pSMAD2, pSMAD5, total SMAD2/3 or SMAD1/5/8 antibodies overnight. Incubation with secondary antibodies containing fluorophores at 1:20,000 dilution (IRDye 800CW conjugated goat anti-rabbit #926-32211, IRDye 680 conjugated goat anti-mouse antibodies #926-32220, LI-COR Biosciences, Lincoln, NE) enabled visualization on the Odyssey Infrared Imaging System from LI-COR Biosciences. […] Data are represented as median±S.D. Statistical analysis, one-way ANOVA with post-hoc Tukey multiple comparison, ****p<0.0001, ***p<0.001; unless stated analysis is non-significant with p>0.05.

mammary epithelial cells = assay: Mammary outgrowth formation on transplantation (ELDA); type: in vivo, mouse; conditions: primary transplantation
Source text: FIGS. 10A-10G. Mammary epithelial cells rely on LEFTY1 for their long-term proliferation potential. FIG. 10A is a schematic representation of the procedure used to inject control, LEFTY1- or BMP7-expressing mammary fibroblasts into the proximity of the mammary gland of 14-18 weeks old NSG female mice. Two to three weeks later, the mammary epithelial cells were isolated and injected in a limiting dilution fashion into weaning age […] mice to assess their engraftment potential. […] The next day, the transduced cells were injected in the cleared fat-pads of weaning age mice in order to test their exogenous mammary epithelial repopulation ability. […]
FIGS. 11A-11F. […] The number of positive outgrowths from the total of transplanted glands are shown, as well as the frequency and 95% CI of engrafting cells calculated by ELDA. […] The frequency and 95% CI was calculated using extreme limiting dilution analysis (ELDA). […]
Alteration of signaling pathways such as Wnt, Hedgehog and Notch results in branching phenotypes that may be linked to the frequency of cells that can be transplanted and originate mammary ducts in recipient mice (Lu & Werb, Science 322, 1506-1509 (2008)). We transplanted endogenous mammary epithelial cells that had been exposed to LEFTY1 or BMP7 for ^˜15 days in vivo and assessed ductal outgrowth formation upon transplantation into secondary recipients (FIG. 10A). […]

pSMAD2 = assay: Immunofluorescent pSMAD2 positive cells in mammary glands exposed to ligand-secreting fibroblasts; type: in vivo, mouse; conditions: basal and luminal compartments
Method: (§2) FIGS. 4A-4I. LEFTY1 inhibits the phosphorylation of SMAD2 and SMAD5 in basal mammary epithelial cells. FIGS. 4A-4C show exemplary quantification of pSMAD2 and pSMAD5 positive cells within the luminal and basal cells of mammary glands isolated from mice that were injected with control or LEFTY1-secreting L1 fibroblasts. Immunofluorescent detection of pSMAD2 or pSMAD5 proteins was used to visualize positive cells. KRT8 and SMA were used to determine the luminal or basal cells, respectively. […] Immunofluorescent detection of pSMAD2 or pSMAD5 proteins was used to visualize positive cells. KRT8 and SMA were used to determine the luminal or basal cells, respectively. FIGS. 4H-4I show representative images of the quantified sections for pSMAD2 and pSMAD5 analysis (Magnification, 400×). Data are represented as median±S.D. Statistical analysis, Student's T-test, n.s. non-significant; ****p<0.0001.

pSMAD5 [2] = assay: Immunofluorescent pSMAD5 positive cells in mammary glands exposed to ligand-secreting fibroblasts; type: in vivo, mouse
Method: as §2, §1

Molecule	binding of LEFTY1 to BMPR2 (pull-down) (BMPR2)	pSMAD5 signal (pSMAD5 [1])	frequency of ductal outgrowths (mammary epithelial cells)	pSMAD2 expression (pSMAD2)	pSMAD5 in basal cells (pSMAD5 [2])	pSMAD5 protein levels in luminal cells (pSMAD5 [2])
B1	able to detect the binding	inhibited	significantly increased	significant decrease	significant decrease	significant decrease
B2	–	–	did not affect	no effect	significant increase	no effect
